Source: IntAct's records for PubMed 19561611

B1: Hedgehog-interacting protein (Homo sapiens), Q96QV1-1 (parent)
chain: MLKMLSFKLLLLAVALGFFEGDAKFGERNEGSGARRRRCLNGNPPKRLKRRDRRMMSQLELLSGGEMLCGGFYPRLSCCLRSDSPGLGRLENKIFSVTNNTECGKLLEEIKCALCSPHSQSLFHSPEREVLERDLVLPLLCKDYCKEFFYTCRGHIPGFLQTTADEFCFYYARKDGGLCFPDFPRKQVRGPASNYLDQMEEYDKVEEISRKHKHNCFCIQEVVSGLRQPVGALHSGDGSQRLFILEKEGYVKILTPEGEIFKEPYLDIHKLVQSGIKGGDERGLLSLAFHPNYKKNGKLYVSYTTNQERWAIGPHDHILRVVEYTVSRKNPHQVDLRTARVFLEVAELHRKHLGGQLLFGPDGFLYIILGDGMITLDDMEEMDGLSDFTGSVLRLDVDTDMCNVPYSIPRSNPHFNSTNQPPEVFAHGLHDPGRCAVDRHPTDININLTILCSDSNGKNRSSARILQIIKGKDYESEPSLLEFKPFSNGPLVGGFVYRGCQSERLYGSYVFGDRNGNFLTLQQSPVTKQWQEKPLCLGTSGSCRGYFSGHILGFGEDELGEVYILSSSKSMTQTHNGKLYKIVDPKRPLMPEECRATVQPAQTLTSECSRLCRNGYCTPTGKCCCSPGWEGDFCRTAKCEPACRHGGVCVRPNKCLCKKGYLGPQCEQVDRNIRRVTRAGILDQIIDMTSYLLDLTSYIV

Variants of: B1
Conditions: with shh_mouse Shh

Variant	effect of a mutation on the interaction
D383R	disrupting interaction strength
D383A	disrupting interaction strength
